The values that follow are results of earlier work, collected in publication PMC6143783.

In data set [1] the target is GABAA receptor α1 TM3-TM4 loop (Homo sapiens) (UniProt P14867). The data set is described as follows: ITC.
Data set [2] has as its target GABAA receptor α3 TM3-TM4 loop (Homo sapiens) (UniProt P34903). The data set is described as follows: ITC.

Sequence of gephyrin (Q03555 whole entry): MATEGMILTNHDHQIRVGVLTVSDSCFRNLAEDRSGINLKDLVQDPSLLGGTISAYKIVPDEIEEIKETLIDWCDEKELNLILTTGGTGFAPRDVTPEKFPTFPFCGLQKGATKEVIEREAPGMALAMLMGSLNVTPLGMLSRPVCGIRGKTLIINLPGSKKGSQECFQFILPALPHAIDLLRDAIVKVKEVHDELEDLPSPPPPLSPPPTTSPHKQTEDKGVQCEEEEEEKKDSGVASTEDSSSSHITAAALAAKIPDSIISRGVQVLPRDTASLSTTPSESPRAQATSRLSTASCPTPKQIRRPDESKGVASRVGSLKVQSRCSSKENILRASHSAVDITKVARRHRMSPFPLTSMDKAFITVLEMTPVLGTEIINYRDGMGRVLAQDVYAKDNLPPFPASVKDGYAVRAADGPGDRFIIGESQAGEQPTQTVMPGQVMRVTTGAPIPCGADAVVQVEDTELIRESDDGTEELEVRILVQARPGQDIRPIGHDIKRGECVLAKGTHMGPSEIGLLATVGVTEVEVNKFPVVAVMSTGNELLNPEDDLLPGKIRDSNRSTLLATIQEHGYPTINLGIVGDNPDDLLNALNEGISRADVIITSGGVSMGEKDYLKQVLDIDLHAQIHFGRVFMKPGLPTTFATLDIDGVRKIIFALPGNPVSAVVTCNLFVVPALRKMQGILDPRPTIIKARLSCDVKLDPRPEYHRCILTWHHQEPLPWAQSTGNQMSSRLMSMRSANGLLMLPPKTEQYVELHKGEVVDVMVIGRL
Sequence of GABAA receptor α3 TM3-TM4 loop (Homo sapiens) (P34903 359-457): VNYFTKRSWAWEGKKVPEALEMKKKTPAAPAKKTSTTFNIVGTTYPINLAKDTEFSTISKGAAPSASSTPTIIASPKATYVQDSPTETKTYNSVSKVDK
Sequence of GABAA receptor α1 TM3-TM4 loop (Homo sapiens) (P14867 334-420): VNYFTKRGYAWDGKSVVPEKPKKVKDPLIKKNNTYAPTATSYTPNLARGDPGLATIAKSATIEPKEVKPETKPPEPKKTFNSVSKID

Regarding gephyrin (from UniProt Q03555), the Kd is 17 µM in data set [1] and 5.3 µM in data set [2].
